According to paper PMC3549248, “Charcot–Marie–Tooth type 2B disease-causing RAB7A mutant proteins show altered interaction with the neuronal intermediate filament peripherin” (Acta Neuropathologica, 2012):
Positions count from the first letter of the chain named. Numbers in names are those of the source.

Legend:
[1] = target: T1, pGADT7Rec-peripherin, P41219; test: yeast two-hybrid β-galactosidase liquid assay; settings: chain shown with the change; ONPG as substrate; parent: est. 80; read off a plot
T1 chain: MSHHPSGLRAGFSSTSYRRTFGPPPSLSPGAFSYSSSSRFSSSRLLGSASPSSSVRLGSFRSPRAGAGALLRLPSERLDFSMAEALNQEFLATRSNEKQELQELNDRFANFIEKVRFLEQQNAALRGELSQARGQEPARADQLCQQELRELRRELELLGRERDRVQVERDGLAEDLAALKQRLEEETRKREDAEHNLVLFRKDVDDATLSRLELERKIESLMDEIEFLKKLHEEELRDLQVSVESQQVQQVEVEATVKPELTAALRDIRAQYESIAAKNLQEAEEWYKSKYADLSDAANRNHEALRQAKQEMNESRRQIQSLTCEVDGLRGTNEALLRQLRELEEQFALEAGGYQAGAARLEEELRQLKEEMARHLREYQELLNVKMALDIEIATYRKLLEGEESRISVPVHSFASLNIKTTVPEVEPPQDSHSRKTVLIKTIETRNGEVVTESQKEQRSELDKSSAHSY

[2] = target: T2, HA-tagged RAB7A N161T (UniProt P18067 1-207, N161T); test: co-IP; Neuro2A cells transfected with HA- or MYC-tagged RAB7A; RIPA lysate; anti-HA or anti-MYC resin 1 h at 4 °C; blot for endogenous peripherin; settings: partners not purified
T2 construct: RAB7A with a CMT2B disease mutation; plasmid described previously; also called disease-causing mutant; source: Neuro2A or PC12 cells, transfected, in lysate

[3] = target: T3, HA-tagged RAB7A V162M (UniProt P18067 1-207, V162M); test: as above; settings: partners not purified
T3 construct: RAB7A with a CMT2B disease mutation; plasmid described previously; also called disease-causing mutant; source: Neuro2A or PC12 cells, transfected, in lysate

[4] = target: T4, HA-tagged RAB7A L129F (UniProt P18067 1-207, L129F); test: as above; settings: partners not purified
T4 construct: RAB7A with a CMT2B disease mutation; plasmid described previously; also called disease-causing mutant; source: Neuro2A or PC12 cells, transfected, in lysate

[5] = target: T5, HA-tagged RAB7A K157N (UniProt P18067 1-207, K157N); test: as above; settings: partners not purified
T5 construct: RAB7A with a CMT2B disease mutation; plasmid described previously; also called disease-causing mutant; source: Neuro2A or PC12 cells, transfected, in lysate

[6] = target: T6, His-tagged RAB7A Q67L (UniProt P18067 1-207, Q67L); test: pull-down; 20 μg purified His-tagged RAB7A bound to NiNTA resin, incubated with Neuro2A cell extracts at 4 °C for 1 h; blot for peripherin; settings: one partner purified
T6 construct: RAB7A constitutively active mutant, from E. coli; also called constitutively active RAB7A Q67L mutant

[7] = target: T7, His-tagged RAB7A K157N (UniProt P18067 1-207, K157N); test: as above; settings: one partner purified
T7 construct: RAB7A with a CMT2B disease mutation, from E. coli; The pull-down text says 'the CMT2B RAB7A mutants'; also called CMT2B RAB7A mutant K157 N

[8] = target: T8, His-tagged RAB7A V162M (UniProt P18067 1-207, V162M); test: as above; settings: one partner purified
T8 construct: RAB7A with a CMT2B disease mutation, from E. coli; The pull-down text says 'the CMT2B RAB7A mutants'; also called CMT2B RAB7A mutant V162 M

[9] = target: T9, His-tagged RAB7A L129F (UniProt P18067 1-207, L129F); test: as above; settings: one partner purified
T9 construct: RAB7A with a CMT2B disease mutation, from E. coli; The pull-down text says 'the CMT2B RAB7A mutants'; also called CMT2B RAB7A mutant L129F

[10] = target: T10, His-tagged RAB7A N161T (UniProt P18067 1-207, N161T); test: as above; settings: one partner purified
T10 construct: RAB7A with a CMT2B disease mutation, from E. coli; The pull-down text says 'the CMT2B RAB7A mutants'; also called CMT2B RAB7A mutant N161T

B1: pGBKT7-RAB7A wt, P18067 V162M (protein)
chain: MTSRKKVLLKVIILGDSGVGKTSLMNQYVNKKFSNQYKATIGADFLTKEVMVDDRLVTMQIWDTAGQERFQSLGVAFYRGADCCVLVFDVTAPNTFKTLDSWRDEFLIQASPRDPENFPFVVLGNKIDLENRQVATKRAQAWCYSKNNIPYFETSAKEAINMEQAFQTIARNALKQETEVELYNEFPEPIKLDKNDRAKTSAESCSC
response (relative units) [1]: 99

B2: pGBKT7-RAB7A wt, P18067 T22N (protein)
chain: B1 chain with T22N, M162V
response (relative units) [1]: 115

B3: pGBKT7-RAB7A wt, P18067 N161T (protein)
chain: B1 chain with N161T, M162V
response (relative units) [1]: 102

B4: pGBKT7-RAB7A wt, P18067 K157N (protein)
chain: B1 chain with K157N, M162V
response (relative units) [1]: 98

B5: peripherin (endogenous, Neuro2A cells) (natural protein, mouse (endogenous in Neuro2A), UniProt P15331 1-475, looked up)
chain: MPSSASMSHHHSSGLRSSISSTSYRRTFGPPPSLSPGAFSYSSSSRFSSSRLLGSGSPSSSARLGSFRAPRAGALRLPSERLDFSMAEALNQEFLATRSNEKQELQELNDRFANFIEKVRFLEQQNAALRGELSQARGQEPARADQLCQQELRELRRELELLGRERDRVQVERDGLAEDLAALKQRLEEETRKREDAEHNLVLFRKDVDDATLSRLELERKIESLMDEIEFLKKLHEEELRDLQVSVESQQVQQVEVEATVKPELTAALRDIRAQYENIAAKNLQEAEEWYKSKYADLSDAANRNHEALRQAKQEMNESRRQIQSLTCEVDGLRGTNEALLRQLRELEEQFALEAGGYQAGAARLEEELRQLKEEMARHLREYQELLNVKMALDIEIATYRKLLEGEESRISVPVHSFASLSLKTTVPEMEPLQDSHSKKMVLIRTIETRDGEKVVTESQKEQHSDLDKSSIHSY
notes: peripherin endogenous in mouse Neuro2A neuroblastoma cells, detected with anti-peripherin antibodies; main form of 58 kDa (Per-58); also called Per-58; source: endogenous, Neuro2A lysate
co-immunoprecipitated peripherin relative to RAB7A wt [2]: ~60 % more than RAB7A wt | co-immunoprecipitated peripherin relative to RAB7A wt [3]: ~60 % more than RAB7A wt | co-immunoprecipitated peripherin relative to RAB7A wt [4]: ~60 % more than RAB7A wt | co-immunoprecipitated peripherin relative to RAB7A wt [5]: ~60 % more than RAB7A wt | pulled-down peripherin relative to RAB7A wt [6]: 2 fold of RAB7A wt | pulled-down peripherin relative to RAB7A wt [7]: 2 fold of RAB7A wt | pulled-down peripherin relative to RAB7A wt [8]: 2 fold of RAB7A wt | pulled-down peripherin relative to RAB7A wt [9]: 2 fold of RAB7A wt | pulled-down peripherin relative to RAB7A wt [10]: 2 fold of RAB7A wt
